The data set in a line: soluble on expression in E. coli; label from the status in PepcDB or PDB records.
As to “MSHPWRSRGEKRTIMFGYTPSDTILKYLKDMRDLINRAILNAYSIARSNDDSLPSPITLRRSLKDYYDNNVAYAKHHINPVCRTAIAMLRSYKKNNGRLKVVKAKRLAMRIDSELAKIEDNRLRITIRPNVYEYVDIVDRNKKYSEYSKYPISEVLLTDNRVYITFITGSDDKPVIANNIIGFDLNFKSVDYTVIKDNRIAYVDSIDTYDIAKTQRDYERKRRKIQKHIRNPAKRIRKLKEAKHRQRNIVRDKLQKLTTNIVKNNEDKTFVFEDLTNIKKKGKKHKDHKRDGQSSKRFRTDINRWPYRLFQMFVEYKSKNETLYVDPEGTSSECPVCGGILEHPIWKMSKCDNCGATFDRDRLSSLSIAVRGLHLCGTPFSVSGSASWDSMKDNYLYR”, the “soluble on expression in E. coli” value is “not soluble”. On to “AAIYHLDVSGQATIRFRPPAFLKTLVSEHAGTTRLNTLSMIHHDDRHMLSNAYSKLREAKHSLTLVYRIVTPEGKLHWIEDHMRSSFSDD”, for which the “soluble on expression in E. coli” value is “not soluble”. Under “MMVLRMKVEWYLDFVDLNYEPGRDELIVEYYFEPNGVSPEEAAGRIASESSIGTWTTLWKLPEMAKRSMAKVFYLEKHGEGYIAKIAYPLTLFEEGSLVQLFSAVAGNVFGMKALKNLRLLDFHPPYEYLRHFKGPQFGVQGIREFMGVKDRPLTATVPKPKMGWSVEEYAEIAYELWSGGIDLLKDDENFTSFPFNRFEERVRKLYRVRDRVEAETGETKEYLINITGPVNIMEKRAEMVANEGGQYVMIDIVVAGWSALQYMREVTEDLGLAIHAHRAMHAAFTRNPRHGITMLALAKAARMIGVDQIHTGTAVGKMAGNYEEIKRINDFLLSKWEHIRPVFPVASGGLHPGLMPELIRLFGKDLVIQAGGGVMGHPDGPRAGAKALRDAIDAAIEGVDLDEKAKSSPELKKSLREVGLSKAKVGVQH” stands “soluble”.

Consider “MGSDKIHHHHHHMKIGIITICKVNNYGAELQAFATQKKLEQMGHNAEIINYLYYKDWHFKDTPLSQPFVPLDMKGKLSYWIKYRLMSWVVNKVLPIFNGNMRRRLHNYQSFIDSERFSAQYKSMDELYKTYPKYDIYMVGSDQVWNPSASSSIEPYFLTFAPKNAPKVTYASSFGVASIAPNLSKRYAKLLNNLDTIAVREQSGVELVKQLTGREAKLVVDPTLLLSKADWEPYMKPLAKISTQYILIYQLFPSQTVIDVALKIGKEKNLPVYNICKRAYGMKKIVGINNILDAGPSEFLWLIANATCMVTNSFHGTAFSVNFATPFCCVLNRKRKNNGRMISFLDKVDMSNRILYEDSIAELNVMTACSEVTNNHLRLLVNNSIDYLKSIIENKEQKC”, for which the “soluble on expression in E. coli” value is “not soluble”. Turning to “MLNRFKSWRERGWVPIDAAAYELAWQRLGGSVATHPLVVARLSEFSGIPVRYLAWEQGGEVKAAIATWGRSLALSKDELKRHGKKGLFDLGNAELILPVAEGVQVPVRHRARYVSALNEGRISTLKSQTESLAMARTPEELSKKFRYNQRRELRLLEEAGGTVRPVSEFSSAELASMYCDLFQRRWGFEATGARDKAQVIELLRDLLIGSVVFLNDAPIAIQLVYRVEAPQWVSIEYVNGGVDPETRDFSPGSVLSFVNTQSAWEDARALGKALRFSFGRADREYKDRWCNPVPVFQL”, the “soluble on expression in E. coli” value is “not soluble”. Under “MAHHHHHHMKKKGCHSDRKHCQKHVQAELCLFILHSVLRKCPNKMVHSILQNSHGNIRKKFEISLKHETSTPAPQKRRREVLLKRKTNSKRGNRA” stands “not soluble”; under “MAHHHHHHSLAEQIDLKTFKTDVADYEAARPEYPIGITDWITDEFLIDETSIILELGAGTGKFTPRIIASHPKEIIAVDVYPEMLDVLRKKFPNVDCRAGSAMAIPLEDESVDLVLCAQCFHWFANEEAMKEIYRVLKPNGKLGLVWNTRDDTVPWIEKVSKILGRYRKDAPSFVSWKWAELFPGHGFGKLRYCAFPFSRCLTVEELHTLMNSFSFIYKLPEEEKEKVHAELDEIAKTIPRVQNTDQIKLCYQTMAFSSEKEPAKEG”, “soluble”; under “MQKVEGIIFDMDGVLFDSERISLEFWMETFEKYGYTMTKEIYTSVMGRNRKGIIEGLTDIYDSSVPIIDLYDEKTKNMIEFMERKGAPIKLGVNELISFLKENGYKMAVATSTKRERAVKRLAKANLKDYFDAIVCGDDVVNSKPNPEIFLKAAKKINVNPKNCIVIEDSPMGVEAAYNGGIRCINVPDLKEPDEQIKSQSHKILENLLEVREYLKSLNSKECHNL”, “not soluble”.

Take “MEKIAVVGAGITGLFTAYYLSASGFDVEVFDKGDIASGTSGKFHGMLHSGARYAVTDKVSASECISENNTISSFARWFINDTGGYFVSSNREESDYGDTLTKACNDAGIPNYDIDVDEFKKIEPNVKNVDRVIHVPDKVIRAYEFSAAVAAEAFMNGTKFRLYSPVASVSEKGGKYVLGIERNGSLHYEHFDLIVNATGPFSGEFLKLAGYGGSPVMPSAGIMVVFSKPIVRSIINRMREPSDADIMVPYDGLSILGTSAVIVDDPENFSIDSEDVEAMIEDMSSLIPLIRNVNYSRTYYSVRPLLEDEGDDARKASRSFRIIKNGEGVFTVVGGKFTTGRLIGEHVAKEISKETGATIRIENPDLNSTYERFIEKYGRDDKYIAKAMSRIGTIDEENAMRSVAYAISTIIEGSLEHHHHHH”: the “soluble on expression in E. coli” value is listed as “not soluble”. Under “APTMTEFVGTAGGDTVGLVIANVDSLLHKHLGLDNTCRSIGIISARVGAPAQMMAADEAVKGTNTEVATIELPRDTKGGAGHGIFIVLKAADVSDARRAVEIALKQTDKYLGNVYLCDAGHLEVQYTARASLIFEKAFGAPSGQAFGIMHAAPAGVGMIVADTALKTADVKLITYGSPTNGVLSYTNEILITISGDSGAVLQSLTAARKAGLSILRSMGQDPVSMSKPTF” stands “soluble”; under “MTAPGSMPLTVIGGFLGAGKTTLLNYLLKVQHSERVLVMVNDFGSINIDAELLDQGRHDRPGVVRLQNGCVCCSIGGDLMQAFLQVMSMPDRPDRIIVEASGVADPTRIAQIGRVSGGLSDEGVITLVDASAVRTLAADKYVGDIVRQQILSADIVLLNKLDLSSDAEIVETRAWLRDLAPRTRVVSCIHGEVDAVSVLGIGAGKVAPDAAGGPVDVPVPDLRRASTRHADTFHSSTLATAHRFDRRRIEYALDALPQTVLRGKGFVELEGEATPALLQLCGSRWTLDPVSTPAPPAGTHLVFIATGGRGVPRFDAPSHFEQALASRDAASADTSNLEHHHHHH”, “soluble”. The entry for “MAFFRNCDPDDPLCIDECRLQKFEYLRWVRLLPSGDEDVLSYCASIGARLGKSEGYVSRRIDAFSMLLELSKVHELQLKMWHLDITRLMVIAQALSGVEKEVIEEIDAPLARFLTPKRDNQKMPGPKVIKKFIVDLLVRVEDAVEEVDSPQELAIDFYDAGNGKTGINAVVDNATASIFRDQLMRLAKAYECDDSSALLLMATQEGKSLTINLYKGDNFGELMTADGYRLSRKSVDLVFPNASRRSLEGVENVETRGYSFTPSMRAYIQARDGVCRFPGCSIRAVNCDIDHVEEYGLGGKTTARNAQCLCRRHHNLKTSKAVDCEISGDASVSWILEDGTKVVTLPEGIFSADRLFGQTFAQRVVDRIRRRKLRMRKNSCDDVPF” is “not soluble”. Regarding “MFKLVGKEAFKVGDMKCIINVEALGTFAYEYSLDVNGKTFNKFKEEQNKRLHSWETTLSGHQWRVVLDKESMEIWANGNNIDTAGEFVDNGTVTHFELGKNPCKIIAQSSGKKKTGVTHTLYVNGEIVPSTVDKPNPSNQPGSS”, the “soluble on expression in E. coli” value is given as “not soluble”. For “MGLYAISDLHLAFNLDKPMNIFGEEWSKHDEKIKKNWISKISEEDTVLIAGDISWSMDIENGEEDLNWIDCLPGKKIICKGNHDYWWKSITKLNNMYKSISFLQNNFFEYKDYAICGTRGWIDKSFDSFDEHDKKVYKREIIRLRLSLDAAVKKGYSKFIVMFHYPPFKDENSGSEFTEVLEEYKVEKAIYGHLHGPALKNISGSIVKNGVEYMLTSCDYIEFNPIKIDLKLEHHHHHH”, the “soluble on expression in E. coli” value was “soluble”. Take “MKVILVNGSPHKDGCTFTALEEVAKALNEEGIDTEFFHLGTKPLNGCIACGHCRKHQRCVFPDSVNEFLDLAQEADGFIFGSPVHYAAAGGAITSFLDRVFYTDSGSGKQAFYLKPAAAVVSARRAGTTASLDQLNRYFTIKEMPIISSKYWNMVHGNTPEEVRKDEEGLQIMRTLGRNMAWFLKCKEAGIRAGIPFPSQEEGLRTNFIRLEHHHHHH”: the “soluble on expression in E. coli” value is listed as “soluble”. Under “MSLKALDEPPYLTVGTDVSAKYRGAFCEAKIKTAKRLVKVKVTFRHDSSTVEVQDDHIKGPMKVGAIVEVKNLDGAYQEAVINKLTDASWYTVVFDDGDEKTLRRSSLCLKGERHFAESETLDQLPLTNPEHFGTPVIGKKTNRGRRSNHIPEEESSSSSSDEDEDDRKQIDELLGKVVCVDYISLDKKKALWFPALVVCPDCSDEIAVKKDNIMVRSFKDGKFTSVPRKDVHEITSDTAPKPDAVLKQAFEQALEFHKSRTIPANWKTELKEDSSSSEAEEEEEEEDDEKEKEDNSSEEEEEIEPFPEERENFLQQLYKFMEDRGTPINKRPVLGYRNLNLFKLFRLVHKLGGFDNIESGAVWKQVYQDLGIPVLNSAAGYNVKCAYKKYLYGFEEYCRSANIEFQMALPEKVVNKQCKECENVKEIKVKEENETEIKEIKMEEERNIIPREGHHHHHH” stands “soluble”; under “MGSDKIHHHHHHMKFFNREKEIEEILHIIESEPQRINFIFGSINSGKTALINEIINNRLNKDKYVVFYFDLREIFISKYDDFIEVLFEEYEEPFIDKVKRLFLSLIKDYPDVIKSYALLNITGVVDSIPIPKNTLNELLKKRNVKNVFRYITSVLIKIKREGKQPIIIIDELQKIGDLKLNGFLIYELFNYFVSLTKHKHLCHVFCLSSDSLFIERVYNEAMLEGRCKYILVDDFDRETALKFMDFLAKENNINLTNEDKELIYNYVGGKPIDIIYVINEMKYKKLEDILTSMLKEETQKLKYFLENVKEEDEELYKKVVDALKIFKDSYEIEDIKIPKKLREFLVKKNILFLNPIEGTLKPQSFLVWNAIKRIL”, “not soluble”; under “SLPHPAPGPADAEDPRLAEVMAAVRSSRRYQSVAPETVRRLAANALVASRGDLAEAVKRTKRSLHEVFGAYLPSPPKYDALLRQLRDAVDAGDDEAVRAVLHRAMSTHASTRERLPILEEFYREVFARLDAPTSVRDLACGMNPLAAPWMPGSDAFTYHASDIDTRLTEFLAAALETLGVAHDVRVRDLMTGVGEVATDVTLLLKTLPCIEAQGRGQGWDLIDAIRSPVVVVSFPTKSLGQRSKGMFNTYSANFGAWLENRPHDVEQVEFRNELVYFVRKNA”, “soluble”. As for “KKPLSVFKGPLLHISPAEELYFGSIESGEKKTLIVLTNVTKNIVAFKVRTTAPEKYRVKPSNSSCDPGASIDIIVSPHGGLTVSAQDRFLIMAAEMEQSSGTGPAELSQFWKEVPRNKVMEHRLRCHTVESSKPNSLML”, the “soluble on expression in E. coli” value is “soluble”.

For the sequence “MNETPTRVYAEIDLDAVRANVRALRARAPRSALMAVVKSNAYGHGAVPCARAAQEAGAAWLGTATPEEALELRAAGIQGRIMCWLWTPGGPWREAIETDIDVSVSGMWALDEVRAAARAAGRTARIQLKADTGLGRNGCQPADWAELVGAAVAAQAEGTVQVTGVWSHFACADEPGHPSIRLQLDAFRDMLAYAEKEGVDPEVRHIANSPATLTLPETHFDLVRTGLAVYGVSPSPELGTPAQLGLRPAMTLRASLALVKTVPAGHGVSYGHHYVTESETHLALVPAGYADGIPRNASGRGPVLVAGKIRRAAGRIAMDQFVVDLGEDLAEAGDEAVILGDAERGEPTAEDWAQAAHTIAYEIVTRIGGRVPRVYLGGLEHHHHHH”, the “soluble on expression in E. coli” value is “soluble”. As for “MVDIEPDRVYVFTPDGHAIDLPKNATPLDFAYRVHTEIGHNCRGAKINGRIVPLNYSLQTGEQVEIITSKHGTPSRDWLEHHHHHH”, the “soluble on expression in E. coli” value is reported as “not soluble”.

These data come from the DeepSol protein solubility set.
